Experimental data reported in the DeepSol protein solubility set.

Experiment: soluble on expression in E. coli; label from the status in PepcDB or PDB records

Soluble on expression in E. coli, soluble:
MSLKRLIMATMVTAILASSTVWAADNAPVAAQQQTQQVQQTQKTAAAAERISEQGLYAMRDVQVARLALFHGDPEKAKELTNEASALLSDDSTEWAKFAKPGKKTNLNDDQYIVINASVGISESYVATPEKEAAIKIANEKMAKGDKKGAMEELRLAGVGVMENQYLMPLKQTRNALADAQKLLDKKQYYEANLALKGAEDGIIVDSEALFVNEGHHHHHH
MSLTLSDKDFEVLRDFIYNHCGIYFHTSKKYFLESRITRRIEATSSPNLMTYMGLLKSGPGKSDELLKLLTEITTNETCFFRNPPQLKALENVFLPEIVAAKGKIGFRKLRIWSAGSSSGEEAYTMAMLLLEKRATILKDWIIEIVGTDISETVLAQAREGVYNAYSVRNTPDYYKKKYFRQEPGERYVLSPDVKKLVSFNHLNLYEDAKMVFMKSFDFIFCANVLIYFDLASKTKVVQHYYNNLQPYGYFFVGQSESLHGVNDKFKTVHFPGGFAYKKEGHHHHHH
KQSKLTLMSESLRNDGRIWVPKKLEDAKALQAGTKKPTDIPDADRDFYLERRYPAFGNLVPRDVASRAAKERCDAGFGVNNTGLAVFLDFKYAIDRLGEDVVRARYGNLFDMYEEITDENPYKTPMMIFPA
MLRLDTRFLPGFPEALSRHGPLLEEARRRLLAKRGEPGSMLGWMDLPEDTETLREVRRYREANPWVEDFVLIGIGGSALGPKALEAAFNESGVRFHYLDHVEPEPILRLLRTLDPRKTLVNAVSKSGSTAETLAGLAVFLKWLKAHLGEDWRRHLVVTTDPKEGPLRAFAEREGLKAFAIPKEVGGRFSALSPVGLLPLAFAGADLDALLMGARKANETALAPLEESLPLKTALLLHLHRHLPVHVFMVYSERLSHLPSWFVQLHDESLGKVDRQGQRVGTTAVPALGPKDQHAQVQLFREGPLDKLLALVIPEAPLEDVEIPEVEGLEAASYLFGKTLFQLLKAEAEATYEALAEAGQRVYALFLPEVSPYAVGWLMQHLMWQTAFLGELWEVNAFDQPGVELGKVLTRKRLAG
SLQSIIGKHKDEGKITPEYLKKIDAYWRAANFISVGQLYLLDNPLLREPLKPEHLKRKVVGHWGTIPGQNFIYAHLNRVIKKYDLDMIYVSGPGHGGQVMVSNSYLDGTYSEVYPNVSRDLNGLKKLCKQFSFPGGISSHMAPETPGSINEGGELGYSLAHSFGAVFDNPDLITACVVGDGEAETGPLATSWQANKFLNPVTDGAVLPILHLNGYKISNPTVLSRIPKDELEKFFEGNGWKPYFVEGEDPETMHKLMAETLDIVTEEILNIQKNARENNDCSRPKWPMIVLRTPKGWTGPKFVDGVPNEGSFRAHQVPLAVDRYHTENLDQLEEWLKSYKPEELFDENYRLIPELEELTPKGNKRMAANLHANGGLLLRELRTPDFRDYAVDVPTPGSTVKQDMIELGKYVRDVVKLNEDTRNFRIFGPDETMSNRLWAVFEGTKRQWLSEIKEPNDEFLSNDGRIVDSMLSEHLCEGWLEGYLLTGRHGFFASYEAFLRIVDSMITQHGKWLKVTSQLPWRKDIASLNLIATSNVWQQDHNGYTHQDPGLLGHIVDKKPEIVRAYLPADANTLLAVFDKCLHTKHKINLLVTSKHPRQQWLTMDQAVKHVEQGISIWDWASNDKGQEPDVVIASCGDTPTLEALAAVTILHEHLPELKVRFVNVVDMMKLLPENEHPHGLSDKDYNALFTTDKPVIFAFHGFAHLINQLTYHRENRNLHVHGYMEEGTITTPFDMRVQNKLDRFNLVKDVVENLPQLGNRGAHLVQLMNDKLVEHNQYIREVGEDLPEITNWQWHV
SNAMDKYPFLREAGSSFKDRDVTKMSDLIATWDGQDIKGPALIGVPLSKSSISHSGASFAPGTIRQALKHSSAYSAELGEHVVSELLYDLGDIDIHVTDIVKSHHHIFQTMHALLSDHPDWVPLILGGDNSISYSTIKAIAQTKGTTAVIQFDAHHDVRNTEDGGPTNGTPFRRLLDEEIIEGQHLIQLGIREFSNSQAYEAYAKKHNVNIHTMDMIREKGLIPTIKEILPVVQDKTDFIFISVDMDVLDQSHAPGCPAIGPGGLYTDELLEAVKYIAQQPNVAGIEIVEVDPTLDFRDMTSRAAAHVLLHALKGMKLSPFK

Soluble on expression in E. coli, not soluble:
MLTIHTKLISAMITQSLKDHPIETCGIIAGLAGSNLPLRLIPMRNVAQSENFFMFDPQQQLQVWKEMSARHEEPVVIYHSHTGSEAYPSRSDVELAAEPQAHYVIIPTCSPHKEEIRSFRIVDQMVIEERVQIVRQYQPELEFQMMVALEHHHHHH
MELPILPTSVIGSYPKPRWLLRMYRLRDLGKIPEEDFKEAVKDASVSVLREHERAGVDIPWDGEMWRTEMTEHFTAKIGGFKFYGPVRVWGNAYFNKAAAVDKLEYKEPLVLEEFLWVKKNTTREVVKIPITGPYTIAEWSFNEYYPDKESFIMDLAKIINKELKMLENHGALYIQLDEPAMLNHPDEVPLAVEAINKAVKGIKIKVGLHVCYSNYYLLADYFDEIRVTQFALEFANRQFRDMDFLKKLSNKELGFGVVDVHNPRIESVEEIVKAIKKVFEYVEPELLYINPDCGMKLLDRNIAYNKLVNMVKATELVRKELEREGKKTTEFRTLKDILEHHHHHH
MGSDKIHHHHHHMADRPHAEEGQTAGPAGQPGVAAWLDNQPPKWRPVASAIGSLELMTFFQFVLAAVLMSALPAHGADRIIYLTFDDGPLNGTSNILDVLEAEQVPATLFMVGMHAEAGASNKALVRRAKAMPLVTIGNHSYTHAYNHYRHFYGDTEGVVADMLMANVVLGLKPAVHARLPGRDVFRLPSMSKDDNSLGPAQAGREDPDYEFVAASGFYLYGWDHEWVHKDSGEPVQSVDHLVSEIDHLFGYGHFAKPGKLILLMHDEMFQDGFDGKTKLTDLITALKLRHYAFGTIPNYDH
MTANREAIDMARVAAGAAAAKLADDVVVIDVSGQLVITDCFVIASGSNERQVNAIVDEVEEKMRQAGYRPARREGAREGRWTLLDYRDIVVHIQHQDDRNFYALDRLWGDCPVVPVDLSANSAGAQ
GHHHHHHAIAENLYFQSAQYKGAASEAGRAMHLMKKREKQREQMEQMKQRIAEENIMKSNIDKKFSAHYDAVEAELKSSTVGLVTLNDMKAKQEALVKEREKQLAKKEQSKELQMKLEKLREKERKKEAKRKISSLSFTLEEEEEGGEEEEEAAMYEEEMEREEITTKKRKLGKNPDVDTSFLPDRDREEEENRLREELRQEWEAKQEKIKSEEIEITFSYWDGSGHRRTVKMRKGNTMQQFLQKALEILRKDFSELRSAGVEQLMYIKEDLIIPHHHSFYDFIVTKARGKSGPLFNFDVHDDVRLLSDATVEKDESHAGKVVLRSWYEKNKHIFPASRWEPYDPEKKWDKYTIR
MAQSKESPDEAKQDEIIFNIGDTINDYEIVSKIDEGGFGQVFKVTKDHKTFYAMKLESNFQVGGSAIKLEINVLSQLPKNTVFPELICGGKRPRYHFLVLELLGDNLKALKAQSPNPSVFSDGTWSRIGIQCLYAMKMMHDSGFVHRDIKPSNFAIGYSTASESRSRRVLLFDFGLARKFVKKEKNLAPIVTKKESKISKSKTLPSKGPSTKSKDLKPGRSKPILNRKAEQMKIKKNFNMLIPPKSIDQSQRTAEEKVDDEEFTFRRARPHTDFRGTFQYASPNAHLQLELGRHDDIWSLMYMVAEFFVELPWTSNEEIALEELKNQSSILRLFSDGKNIVSSWIHDRIFSDKNPSRLTPEMRGQLDEIDKNLKSCNYYSSPKYDIVYQFFKDSMTKAKVTWTTPYDWETIGKSSEDFSKKSNGKRAVWENPGAFFKKGRWDALPLPLQSPHISIRKSSSKHPKPSAKGSKKAVQARIQNFSKEDSVEADEAPTPMLKSTKKDGMGGQKGGLKGSIE
MTRRGVALVARRLPSSPGRVYAVKIDEGEDVHSVLSSLAEAEDLGFAMVTGIGGMAEATVAFYSPPEATYYTVDVKPPEGRVIEVAAMTGNIVKTSQGYSVHIHVALGVSPGKSISGHLVKGVVKPFMEVFVVELVSGQGTPGTSVFDHREGFKASYKRLEAAALEHHHHHH
MNYQLVKQVRENNPLRKSFIDLAVKTFDLSFEEWYQQGYWTDAYIPYAFVERNKVIANASANIIDLRWQGEPRRYIQIGTVMTEPDHRNKGLAGQLIHHILQDWQQEADAFFLFANPTTVDFYPKFGFTRSEEYQYIMPVSPRAGDFRKLDMDSPDDVALLRHYYEKSNPFSPLRVEHNFGLLMFYCSAFMKHFVYYSAKNEAVVIAMQNGPVLICFDLFCDVGKSLSTLVNELADDHVYQAILGFTPSEDRLGEYEKIEGEDILFVYDQKENLFKDRKLMFPLLAHA
